Measured values published in publication PMC13322254.

Key:
[1] = target: SB2F1-I66R, SeMet-labeled (Pseudomonas putida | Bradyrhizobium japonicum) (UniProt Q88JB0); assay: crystal structure; crystals grown under continuous blue light (450 nm), 19 °C, 16 to 20% PEG-3350, 0.2 M LiSO4, 0.1 M bicine pH 9.0 to 9.3, 1 mM ATP, 2 mM MgCl2
[2] = target: SB2F1-I66R, SeMet-labeled (Pseudomonas putida | Bradyrhizobium japonicum) (UniProt Q88JB0); assay: crystal structure; dark-grown crystals, sitting-drop vapor diffusion, 19 °C, 10 to 12% PEG-8000, 0.2 M NaCl, 0.1 M sodium citrate pH 5.8 to 6.1, 1 mM ATP, 2 mM MgCl2; for SB2F1 also dark-grown crystals illuminated with blue light before data collection
[3] = target: SB2F1, SeMet-labeled (Pseudomonas putida | Bradyrhizobium japonicum) (UniProt Q88JB0); assay: as above
[4] = target: SB2F1 (Pseudomonas putida | Bradyrhizobium japonicum) (UniProt Q88JB0); assay: SEC; analytical SEC, in the dark only, Superdex 200 10/300 GL, 20 mM tris pH 8.0, 40 mM NaCl, 0.5 ml/min
[5] = target: SB2F1 (Pseudomonas putida | Bradyrhizobium japonicum) (UniProt Q88JB0); assay: SAXS + other: DLS; in solution with ATP and MgCl2, in the dark and after blue light illumination; SAXS at 10 °C in 20 mM Hepes pH 7.5, 150 mM NaCl, 2% glycerol, 2 mM TCEP, 1.5 mM ATP, 3 mM MgCl2, 0.64 to 4.18 mg/ml; DLS at 20 °C, ~1 mg/ml

## SB2F1-I66R, SeMet-labeled (from UniProt Q88JB0 1-120) (enzyme)
[1]
  stoichiometry N: 2
[2]
  stoichiometry N: 2

## SB2F1, SeMet-labeled (from UniProt Q88JB0 1-120) (enzyme)
[3]
  stoichiometry N: 2

## SB2F1 (from UniProt Q88JB0 1-120) (enzyme)
[4]
  stoichiometry N: 2
[5]
  stoichiometry N: 2
